Results: US20100272689A1, “Protease Having Algicidal Activity, Gene Encoding the Same and Algicidal Formulation Comprising the Same” (KOREA OCEAN RESEARCH & DEVELOPMENT INSTITUTE, priority 2007, published 2010)

How the values were obtained:
Assay in all cases: Algicidal activity by cell count after 24 hr (Lugol staining)
Assay type in all cases: cell-based
Alexandrium sp. = settings: for Algicidal activity (degree of inhibition): 50 μl of protein (100 μg/ml), after 24 hr
Procedure: (§1) Organisms used as host for algicidal bacteria screen are Cochlodinium polykrikoides, Thalassiosira sp., Heterosigma akashiwo, Skeletonema costatum, Alexandrium sp., Gymnodium sp., Chaetoceros cuvisetus. Each algae cell was grown to log phase in F/2 broth (0.075 g NaNO3, 0.005 g NaH2PO4?H2O, 0.030 g Na2SiO3?9H2O, 1 ml F/2 trace metal solution, 1 ml F/2 vitamin solution and 1,000 ml aged seawater) [Stein, Handbook of phycological methods, Cambridge Univ. Press, 1973].
(§2) The cultured red tide organisms were diluted in F/2 broth to a final density of 0.05 (excitation wavelength=434 nm, emission wavelength=670 nm)on the fluorescent intensity using fluoro-spectrophotometer (Hitachi, Japan), and then 2.7 ml aliquots were dispensed into several test tubes (110 mm×10 mm) to prepare for the MPN (most probable number) method.
(§3) To measure algicidal activity of 10476—7 protein (SEQ ID NO:27), 50 μl of said protein (100 μg/ml) was added to the culture solutions of Cochlodinium polykrikoides, Thalassiosira sp., Heterosigma akashiwo, Skeletonema costatum, Alexandrium sp., Chaetoceros cuvisetus and Gymnodniium sp. which were prepared in Example 2. After 24 hr, said culture solutions were stained with 1% Lugol's iodine solution, and then the cell number was counted. Experimental groups with protease (experimental group 1 and 2) were compared with control group without protease in cell number and the degree of inhibition.
(§4) To check algicidal activity of proteins isolated Flavobacterium johnsoniae UW101 (ZP—01247095, SEQ ID NO: 4), Croceibacter atlanticus HTCC2559 (ZP—00951344, SEQ ID NO: 5), Leeuwenhoekiella blandensis MED217 (ZP—01059780, SEQ ID NO: 6) and Kordia algicida KAOT1—11562 (SEQ ID NO: 7), 50 μl of said protein (100 μg/ml) was added to the culture solutions of Cochlodinium polykrikoides, Thalassiosira sp., Heterosigma akashiwo, Skeletonema costatum, Alexandrium sp., Chaetoceros cuvisetus, and Gymnodium sp., which were prepared in Example 2. After 24 hr, said culture solutions were stained with 1% Lugol's iodine solution, and then the cell number was counted.
(§5) Experimental groups with protease (experimental group 1 and 2) were compared with control group without protease in cell number and the degree of inhibition.

Chaetoceros cuvisetus = settings: for Algicidal activity (degree of inhibition): 50 μl of protein (100 μg/ml), after 24 hr
Procedure: as §1, §2, §3, §4, §5

[1] = test system: Cochlodinium polykrikoides; settings: Cochlodinium polykrikoides; for Algicidal activity (degree of inhibition): 50 μl of protein (100 μg/ml), after 24 hr
Procedure: as §1, §2, §3, §4, §5

Gymnodinium sp. = settings: for Algicidal activity (degree of inhibition): 50 μl of protein (100 μg/ml), after 24 hr
Procedure: as §1, §2, §3, §4, §5

Heterosigma akashiwo = settings: for Algicidal activity (degree of inhibition): 50 μl of protein (100 μg/ml), after 24 hr
Procedure: as §1, §2, §3, §4, §5

Skeletonema costatum = settings: for Algicidal activity (degree of inhibition): 50 μl of protein (100 μg/ml), after 24 hr
Procedure: as §1, §2, §3, §4, §5

Thalassiosira sp. = settings: for Algicidal activity (degree of inhibition): 50 μl of protein (100 μg/ml), after 24 hr
Procedure: as §1, §2, §3, §4, §5

Molecule	Algicidal activity (degree of inhibition) (Alexandrium sp.)	Algicidal activity (degree of inhibition) (Chaetoceros cuvisetus)	Algicidal activity (degree of inhibition) [1]	Algicidal activity (degree of inhibition) (Gymnodinium sp.)	Algicidal activity (degree of inhibition) (Heterosigma akashiwo)	Algicidal activity (degree of inhibition) (Skeletonema costatum)	Algicidal activity (degree of inhibition) (Thalassiosira sp.)	Algicidal activity (in words) (Alexandrium sp.)	Algicidal activity (in words) (Chaetoceros cuvisetus)	Algicidal activity (in words) [1]	Algicidal activity (in words) (Gymnodinium sp.)	Algicidal activity (in words) (Heterosigma akashiwo)	Algicidal activity (in words) (Skeletonema costatum)	Algicidal activity (in words) (Thalassiosira sp.)
FJ: protein of Flavobacterium johnsoniae UW101 with homology to KAOT1—10476 (protein, listed as Flavobacterium johnsoniae, Flavobacterium johnsoniae UW101 (ZP_01247095)) MKKIKSILILSFTALVLLSCNKEDETVSSGQESLKVTPEVLEKLKSLSLNTSDVQVIQNTSLEGAVEDAFLVEGDIIITQAQLNKMDLHGGITTEQYRTTNLVSAPRTIKVVGLSGTGTTALTTNMRNGLQAAINRYNNLGLSINFTLTFSSSTSGANIVVRRQTGSAGGVAGFPSGGNPYNSVTLYSGLDSYSTNVNAHVAAHEIGHCIGLRHTDWFSRQSCGQNSNEGTAGVGAILIPGTPSGYDATSYMRACFGSNETGAFNANDITALNYLY	++++ (++++ means >75% the degree of inhibition)	++++ (++++ means >75% the degree of inhibition)	++++ (++++ means >75% the degree of inhibition)	++++ (++++ means >75% the degree of inhibition)	++++ (++++ means >75% the degree of inhibition)	++ (++ means 25-50%)	++++ (++++ means >75% the degree of inhibition)							
MED: protein of Leeuwenhoekiella blandensis MED217 with homology to KAOT1—10476 (protein, listed as Leeuwenhoekiella blandensis, Leeuwenhoekiella blandensis MED217 (ZP_01059780)) MTSCSEDAEQTTLPEAQPTSNLEVSSEIIQQVEDLGMNANYVRWDDFYFPDGSSEPRLFLEEDVVVTPEQLSSMSANVEESKSGKGDSKQYRTSALVSQGRTISIIGYTGGSQALSQKERTALQWAVANYNRLSGVSISFNLTFGTDYQNKDMVVYNNTVNNPSGAGGSAGFPSNGLPYKFVQIYGLANYDTNVVEHVMTHEIGHSVGFRHTDWFSRQSCGQNVYEGGDANHVSGTPTGYDSTSIMLACFSANEDGEFNANDITALNNMY	++++ (++++ means >75% the degree of inhibition)	++++ (++++ means >75% the degree of inhibition)	++++ (++++ means >75% the degree of inhibition)	++++ (++++ means >75% the degree of inhibition)	++++ (++++ means >75% the degree of inhibition)	++++ (++++ means >75% the degree of inhibition)	++++ (++++ means >75% the degree of inhibition)							
CRO: protein of Croceibacter atlanticus HTCC2559 with homology to KAOT1—10476 (protein, listed as Croceibacter atlanticus, Croceibacter atlanticus HTCC2559 (ZP_00951344)) MVFVSCEKDNDTNNAEVADTNEVTTGSLETLGVNTDLTPTNLDQATLDLIASKHLSPIGAQEELRYLPDGTSEKAIRIEGDIVMTKAELEELEFNGYSNENAQYSTNALVSPQTITIIGYTGGSQALTSSEQTALQWAVANYNRLNLNINFSLTFGTNYQNKDMVVYNNTVNNPSGAGGSAGFPSGGNPHKFVQIYGLSNYNTNVIEHVITHEIGHSVGFRHTDYFSRQSCGQNTNEGTAGVGANHIPGTPTGYDSTSIMLACFSSGEDGEFNSNDITALNYLY	++++ (++++ means >75% the degree of inhibition)	++++ (++++ means >75% the degree of inhibition)	++++ (++++ means >75% the degree of inhibition)	++++ (++++ means >75% the degree of inhibition)	++++ (++++ means >75% the degree of inhibition)		++++ (++++ means >75% the degree of inhibition)							
KAOT1_11562: protein of Kordia algicida with high homology to KAOT1—10476 (protein, listed as Kordia algicida, Kordia algicida KAOT1_11562) MKRNFKIQMLYVLLTMLLLAGCQNDTEEELVEEATTAVERVDVKWLAPDDHPVVQLLYSRGYERGTIYETDEHFLAPPDLLYSKDINDYDLSDNGSNAEQAYNTGKLVSLNRMRINVFLDNSIGTDLQTQSVNAMNELNGINNCALFFVRVFNANQAQITIRSDFGAESNNVLGRAGFPSNGRPFDTVTLNVDRLDDFGADIRRNTIIHELGHCVGLRHTDWQANRERSAVNIPGTSANDTGSIMWHTINGGTPFTNGDLTAFRALFPRALRIDVVNEIDDYDYSGEIYVLDNVFVDVFTDGSYSTQTTLNRNVNVSYRINVQEYNHTSGTYYYSRNRTLTAGNNRYYIDDEEEECSPYQGETCTRQDLEIRLATSIL	++++ (++++ means >75% the degree of inhibition)	++++ (++++ means >75% the degree of inhibition)	++++ (++++ means >75% the degree of inhibition)	++++ (++++ means >75% the degree of inhibition)	++++ (++++ means >75% the degree of inhibition)	+ (+ means <25%)	++++ (++++ means >75% the degree of inhibition)							
KAOT1_10476: metallo protease of Kordia algicida OT1: signal peptide (1-27), processing peptide (28-98), mature region (99-278) (protein, listed as Kordia algicida, KAOT1_10476 of Kordia algicida OT-1) MKKIKNLTFALALGLGITMVSCSKDTAVVDEEQDTAIGIPQDVLQKAQSLHFNTFDMQEASFEKPNGKIEEGYMMEGDIFFTRDQLMNMELGGDITSKQYRTNNLVSPGVITIIGYTGNNSNGLTTKMQTGLRWAVDNYNALNLSISFQLTFGTDYQNKDMVVYQVQGGAGGSAGFPSGGNPYKWVKINSGMAPYSNNVHEHVIGHEIGHSIGFRHSDYFSRQSCGQNSNEGSAGVGAIHIPGTPTGWDPTSLMNACFSSSEDGEFNGNDITALNFLY	++++ (++++ means >75% the degree of inhibition)	++++ (++++ means >75% the degree of inhibition)	++++ (++++ means >75% the degree of inhibition)	++++ (++++ means >75% the degree of inhibition)	++++ (++++ means >75% the degree of inhibition)	+ (+ means <25%)	++++ (++++ means >75% the degree of inhibition)	showed algicidal activity	showed algicidal activity	cell growth was inhibited effectively	showed algicidal activity	showed algicidal activity	showed algicidal activity	showed algicidal activity
